Measured values as given in US20190030123A1.
pKd: −log10 of the molar value.

Legend:
[1] = molecular target: HIS-tagged neonatal Fc receptor (FcRn, No. CT009-H08H from Sino Biological Inc) (UniProt P55899); experiment: BLI (Octet RED 96), His-FcRn on Ni-NTA biosensor, aflibercept as analyte, pH 6.0; sample (d) Eylea, stored 3 months at 40 C/75% relative humidity
[2] = molecular target: HIS-tagged neonatal Fc receptor (FcRn, No. CT009-H08H from Sino Biological Inc) (UniProt P55899); experiment: BLI (Octet RED 96), His-FcRn on Ni-NTA biosensor, aflibercept as analyte, pH 6.0; formulation (a), starting material T0
[3] = molecular target: HIS-tagged neonatal Fc receptor (FcRn, No. CT009-H08H from Sino Biological Inc) (UniProt P55899); experiment: BLI (Octet RED 96), His-FcRn on Ni-NTA biosensor, aflibercept as analyte, pH 6.0; formulation (a), stored 3 months at 40 C/75% relative humidity
[4] = molecular target: HIS-tagged neonatal Fc receptor (FcRn, No. CT009-H08H from Sino Biological Inc) (UniProt P55899); experiment: BLI (Octet RED 96), His-FcRn on Ni-NTA biosensor, aflibercept as analyte, pH 6.0; sample (d) Eylea, stored 3 months at 5 C
[5] = molecular target: HIS-tagged neonatal Fc receptor (FcRn, No. CT009-H08H from Sino Biological Inc) (UniProt P55899); experiment: BLI (Octet RED 96), His-FcRn on Ni-NTA biosensor, aflibercept as analyte, pH 6.0; formulation (b), stored 3 months at 5 C
[6] = molecular target: HIS-tagged neonatal Fc receptor (FcRn, No. CT009-H08H from Sino Biological Inc) (UniProt P55899); experiment: BLI (Octet RED 96), His-FcRn on Ni-NTA biosensor, aflibercept as analyte, pH 6.0; formulation (a), stored 3 months at 5 C
[7] = molecular target: HIS-tagged neonatal Fc receptor (FcRn, No. CT009-H08H from Sino Biological Inc) (UniProt P55899); experiment: BLI (Octet RED 96), His-FcRn on Ni-NTA biosensor, aflibercept as analyte, pH 6.0; formulation (c), stored 3 months at 5 C
[8] = molecular target: HIS-tagged neonatal Fc receptor (FcRn, No. CT009-H08H from Sino Biological Inc) (UniProt P55899); experiment: BLI (Octet RED 96), His-FcRn on Ni-NTA biosensor, aflibercept as analyte, pH 6.0; sample (d) Eylea, starting material T0
[9] = molecular target: HIS-tagged neonatal Fc receptor (FcRn, No. CT009-H08H from Sino Biological Inc) (UniProt P55899); experiment: BLI (Octet RED 96), His-FcRn on Ni-NTA biosensor, aflibercept as analyte, pH 6.0; formulation (b), starting material T0
[10] = molecular target: HIS-tagged neonatal Fc receptor (FcRn, No. CT009-H08H from Sino Biological Inc) (UniProt P55899); experiment: BLI (Octet RED 96), His-FcRn on Ni-NTA biosensor, aflibercept as analyte, pH 6.0; formulation (c), starting material T0
[11] = molecular target: HIS-tagged neonatal Fc receptor (FcRn, No. CT009-H08H from Sino Biological Inc) (UniProt P55899); experiment: BLI (Octet RED 96), His-FcRn on Ni-NTA biosensor, aflibercept as analyte, pH 6.0; formulation (b), stored 3 months at 40 C/75% relative humidity
[12] = molecular target: HIS-tagged neonatal Fc receptor (FcRn, No. CT009-H08H from Sino Biological Inc) (UniProt P55899); experiment: BLI (Octet RED 96), His-FcRn on Ni-NTA biosensor, aflibercept as analyte, pH 6.0; formulation (c), stored 3 months at 40 C/75% relative humidity

pKd [1]: 10.22
koff [1]: 3e-05 s⁻¹
kon [1]: 493000 M⁻¹ s⁻¹
pKd [2]: 9.93
koff [2]: 6.56e-05 s⁻¹
kon [2]: 556000 M⁻¹ s⁻¹
pKd [3]: 10.04
koff [3]: 4.11e-05 s⁻¹
kon [3]: 454000 M⁻¹ s⁻¹
pKd [4]: 10.01
koff [4]: 6.11e-05 s⁻¹
kon [4]: 631000 M⁻¹ s⁻¹
pKd [5]: 10.03
koff [5]: 5.71e-05 s⁻¹
kon [5]: 619000 M⁻¹ s⁻¹
pKd [6]: 10.01
koff [6]: 5.84e-05 s⁻¹
kon [6]: 596000 M⁻¹ s⁻¹
pKd [7]: 9.99
koff [7]: 6.28e-05 s⁻¹
kon [7]: 610000 M⁻¹ s⁻¹
pKd [8]: 10.00
koff [8]: 5.56e-05 s⁻¹
kon [8]: 560000 M⁻¹ s⁻¹
koff [9]: 6.47e-05 s⁻¹
kon [9]: 613000 M⁻¹ s⁻¹
pKd [10]: 9.97
koff [10]: 6.44e-05 s⁻¹
kon [10]: 605000 M⁻¹ s⁻¹
pKd [11]: 10.23
koff [11]: 2.86e-05 s⁻¹
kon [11]: 483000 M⁻¹ s⁻¹
pKd [12]: 10.23
koff [12]: 2.71e-05 s⁻¹
kon [12]: 459000 M⁻¹ s⁻¹
Substance: aflibercept (from UniProt P17948 129-230; P35968 225-327) (Fc fusion)
